Assays:
[1] = biological target: T1, M1 linked linear ubiquitin (di-Ub) (UniProt P0CG48 1-76; P0CG48 1-76); test: SPR; Biacore S200, 25°C; His-tagged UFD-2 or His-tagged Ufd2p immobilised on NTA chips at 20 μg/ml; single-cycle kinetics with M1 diUb at 0, 100, 200, 500, 1,000 and 2,000 nM; 10 mM HEPES, 150 mM NaCl, 0.05% Tween 20, 0.1% BSA, 50 μM EDTA, pH 8.0; conditions: both partners purified
T1 construct: ubiquitin, first (distal) unit of the M1-linked dimer; ubiquitin, second (proximal) unit, joined by its M1 to G76 of the first unit; also called linear di-Ub; M1 diUb conjugates; source: bought: UbiQ (UbiQ-L01)

CHN-1 = CHN-1 (C. elegans); test: cell-based or functional assay
Sequence of CHN-1 (C. elegans) (main, as listed by the source): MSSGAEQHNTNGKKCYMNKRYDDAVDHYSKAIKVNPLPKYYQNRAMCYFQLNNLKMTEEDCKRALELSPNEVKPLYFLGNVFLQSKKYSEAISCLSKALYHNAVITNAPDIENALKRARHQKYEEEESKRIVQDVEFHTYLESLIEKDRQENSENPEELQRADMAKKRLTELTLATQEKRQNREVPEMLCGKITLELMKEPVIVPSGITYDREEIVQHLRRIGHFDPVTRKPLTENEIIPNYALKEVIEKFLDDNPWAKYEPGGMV

binding result [1]	discharge of Ub-charged UBE2D1 by CHN-1, alone or mixed with UFD-2^P951A (CHN-1)	Binder
binds		6xHis::Ufd2p (enzyme, S. cerevisiae, UniProt P54860 1-961, looked up, Ufd2p, S. cerevisiae; from pET28a-6xHis::Ufd2p; The plasmid is from Liu et al (2017); also called S. cerevisiae Ufd2p; His-tagged Ufd2p; source: bacterial expression system, purified; not shown: 6xHis, N-terminal, kept) MTAIEDILQITTDPSDTRGYSLLKSEEVPQGSTLGVDFIDTLLLYQLTENEKLDKPFEYLNDCFRRNQQQKRITKNKPNAESLHSTFQEIDRLVIGYGVVALQIENFCMNGAFINYITGIVSNVNSYTDFLSQIIQRAILEGTALDLLNAVFPTLLEYCNKHVSHFDLNESVIYNNVLTIFELFVTFKPIAEIFTKIDGFFADYSCKPQDFERKTILGPILSLSPIEAAVAIRNYGDNLLRSKQQTAMIHESLQAEHKVVIDRLFFIVDKLVRGSLNSRTDMISYFAHIANKNHLRRADHPPFKELSSNGFMSNITLLLVRFSQPFLDISYKKIDKIDANYFNNPSLFIDLSGETRLNSDFKEADAFYDKNRKTADSKPNFISDCFFLTLTYLHYGLGGTLSFEEKMGSEIKALKEEIEKVKKIAANHDVFARFITAQLSKMEKALKTTESLRFALQGFFAHRSLQLEVFDFICGASTFLIRVVDPEHEFPFKQIKLPLIPDQIGVENVDNADFLRAHAPVPFKYYPEFVVEGPVNYSLYISKYQTSPIFRNPRLGSFVEFTTMVLRCPELVSNPHLKGKLVQLLSVGAMPLTDNSPGFMMDIFEHDELVNKNLLYALLDFYVIVEKTGSSSQFYDKFNSRYSISIILEELYYKIPSYKNQLIWQSQNNADFFVRFVARMLNDLTFLLDEGLSNLAEVHNIQNELDNRARGAPPTREEEDKELQTRLASASRQAKSSCGLADKSMKLFEIYSKDIPAAFVTPEIVYRLASMLNYNLESLVGPKCGELKVKDPQSYSFNPKDLLKALTTVYINLSEQSEFISAVAKDERSFNRNLFVRAVDILGRKTGLASPEFIEKLLNFANKAEEQRKADEEEDLEYGDVPDEFLDPLMYTIMKDPVILPASKMNIDRSTIKAHLLSDSTDPFNRMPLKLEDVTPNEELRQKILCFKKQKKEEAKHKASE
	≥ 2 fold	6xHis::UFD-2^P951A (enzyme, C. elegans, UniProt Q09349 1-984, looked up) MIEDEKAGLQPMDISDASVFFFQADVESKDFLTSLFDCEGKSDDRMLRYADAIIDVQNLNFDVSPQCLQSNIAEIITKFVLLSQDGSRRGLSRSFNFIDPDIIAGCREEDAIEFLLINFVRCHHELGKSGTSNCYKKTLESTRKAVFSVFVMIQRGYLESQLRSQHASLVFTKRLLEDTVSNVFLRTLVEYLASTDECDEDAITETFNPIFGILRSGIICQRFEDNKDEIVRQILRVMNLLLSIRLPSNGPRPLSNLLVNREDFLPTPSEKIQGREFGLMSFLGPFFSYGLESSARRPNHRVFVDCEEDARKYDGSVNTEQKLYFQRMDPIRTMLHQLMLPLASDQGSRNKTLRWIATIISTNDIRTRSHYDPSDVLCDHYMTNFLSVMYMFSEKIDLSKIIVDYPFLPSSLINISKETRLKMDESGAVAFASQFADRPDEYHFSTVCFFLTIAAQRLVIPPLMNQISEYSRHLKELKHKINALKEKLNTVSGFERAEVEKKLNYETEHWKLMSRHLLCVKTQAQDPALMASSMDFVDKQMKFILNLLCDNLDLLGDDSQLPTEVSQMFCALPEYFLEDALDFYIFAISNGMKLLMERNADWISRLTVLFTQYHYIKSPFLVSKLVRVLSSIQPPLWFNVVRLRMAQENLLMCMIKFYSDFEDNGDFYEKFNVRGNIQYMLEKMEEDMFYKGKFMDMARECGAEFIRFVNMVINDATWCIDESLSGLKSIHDVEKKMANKVEWDNTDQEIRNQDLGVYEEAKRKVKGWLGTAKSNLKLLLSITVNSPEPFRTPVLGERLAAMLNHNLSQLIGSKASELKVKDPRSYGWEPREFVSLLISIYLKLNMPAFVKYIAYDERTYSPEFFHNAIECMRKNSIVGFSQLESFEHLAEDVKKEYEAKAELEEEYDDVPEEFKDPIMDAIMVDPVKLPSGHVMDRAVIERHLLSTPNNAFNRAPLSHNELSPDSELKAKIQEWICQKRNSKK

From paper PMC9340540, “A heterotypic assembly mechanism regulates CHIP E3 ligase activity” (The EMBO Journal, 2022)
